One data set deals with T1, astexin-1.
T1 chain: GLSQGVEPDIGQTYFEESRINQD

The target of data set [1] is T2, astexin-2 ΔC3 (lassoed, threaded).
T2 chain: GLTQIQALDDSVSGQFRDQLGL

Data set [2] concerns the target T3, astexin-2 ΔC4 (lassoed, threaded).
T3 chain: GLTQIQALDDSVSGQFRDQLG

The target in data set [3] is T4, astexin-3 (lassoed, full-length).
T4 chain: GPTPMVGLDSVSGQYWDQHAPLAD

In another data set the target is T5, astexin-3 ΔC1.
T5 chain: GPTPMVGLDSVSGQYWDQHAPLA

For the next data set, the target named is T6, astexin-3 ΔC2.
T6 chain: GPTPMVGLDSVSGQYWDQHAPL

Another data set concerns the target T7, unthreaded astexin-2 ΔC3.
T7 chain: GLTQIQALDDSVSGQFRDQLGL

In the next data set the target is T8, unthreaded astexin-2 ΔC4.
T8 chain: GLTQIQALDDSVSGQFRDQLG

B1: C-terminally His-tagged AtxE2 (protein)
chain: AAREAPPVTPEVLVRLADIGTMSASETTPLLSLSPDGRYVAFQVRQADPVTNLNVFRMVVKATDGATDAIDVDVGGEYLFWTIPSWGYARNAPSGANLTIQPRWSPSGTHLAYLRQDQGRVRVWRASVKGEGASPVIEDAYDIEDVQWLDDNTLIYSGRPGFVEAEAEIEREGRRGWVYDERFHPLTGARPRVLEPISIVYQVLDLKTGTRRAATPTEVARLREKPDPLRAMVGRTTFSVSRTDPQNINAPTTLVARRGEGEPVRCDEEACQNITRMWGDETANVLYFLRREGWASNEMALYRMPADALKPVRIWHATGLLQGCERQAKRLICAQESALQPRRLVTLNLTSGQMSPLYDPNPDLSRYRLPKVERLTLRNRNGIEVFSDLVLPPDYQLGTRLPLVIVQYSSRGFLRGGTGDENPILPLATAGFAVLSFHSPRSEASYQRFTSPIAQSKAEYSNWRNRWNILHTLEDLIDDLDRRGVIDPARVGLTGLSDGATTVHFGLINSHRFAAAVTSSCCTDSFTASVMNGPRISGALKAYGIETDQADDGPFWAATSFVVNASRLDTPLLIQSADEEYLGALPGFTALQQARKPVELIIYPNEHHVKWQPAHRLAVYNRTIDWFRFWLMDQSDPAPDKAAQYDRWRALRALRQKSPSPTPAP
B1: in the data set with astexin-1, the “hydrolysis (HPLC retention time, MS) after 6 hours with 860 nM AtxE2” value is “the retention time of astexin-1 did not shift after incubation with AtxE2 and no molecular weight difference was observed in the MS”. In addition, in data set [1], the “hydrolysis (HPLC retention time) of purified peptide with 424 nM AtxE2” value is on record as “only the threaded species exhibited a change in retention time consistent with hydrolysis of the isopeptide bond”; the “hydrolysis (HPLC retention time, MALDI MS) after 6 hours with 860 nM AtxE2” value was “an increase of 18 mass units for all astexin-2 and astexin-3 species, corresponding to the addition of a water molecule via the cleavage of a single amide bond”. Also, in data set [2], the “hydrolysis (HPLC retention time, MALDI MS) after 6 hours with 860 nM AtxE2” value is “an increase of 18 mass units for all astexin-2 and astexin-3 species, corresponding to the addition of a water molecule via the cleavage of a single amide bond”. Moreover, in data set [3], the Km result is reported as “Km equal to 131 µM”; the “hydrolysis (HPLC retention time, MALDI MS) after 6 hours with 860 nM AtxE2” value is “an increase of 18 mass units for all astexin-2 and astexin-3 species, corresponding to the addition of a water molecule via the cleavage of a single amide bond”; the kcat entry is “kcat equal to 0.38 s^-1”; the kcat/Km entry was “kcat/Km value for AtxE2 to be 2.9×10^3 M^-1 s^-1”. The “hydrolysis (HPLC retention time, MALDI MS) after 6 hours with 860 nM AtxE2” value with astexin-3 ΔC1 was “an increase of 18 mass units for all astexin-2 and astexin-3 species, corresponding to the addition of a water molecule via the cleavage of a single amide bond”. Moreover, in the data set with astexin-3 ΔC2, the “hydrolysis (HPLC retention time, MALDI MS) after 6 hours with 860 nM AtxE2” value was “an increase of 18 mass units for all astexin-2 and astexin-3 species, corresponding to the addition of a water molecule via the cleavage of a single amide bond”. Further, in the data set with unthreaded astexin-2 ΔC3, the “hydrolysis (HPLC retention time) in lysate extract treated with AtxE2” value is “the retention times for these unthreaded species did not change after incubation with AtxE2” and the “hydrolysis (HPLC retention time) of purified, heat-treated peptide with 424 nM AtxE2” value is listed as “only the threaded species exhibited a change in retention time consistent with hydrolysis of the isopeptide bond”. In the data set with unthreaded astexin-2 ΔC4, the “hydrolysis (HPLC retention time) in lysate extract treated with AtxE2” value is given as “the retention times for these unthreaded species did not change after incubation with AtxE2”.

B2: His-tagged S527A mutant of AtxE2 (protein)
chain: AAREAPPVTPEVLVRLADIGTMSASETTPLLSLSPDGRYVAFQVRQADPVTNLNVFRMVVKATDGATDAIDVDVGGEYLFWTIPSWGYARNAPSGANLTIQPRWSPSGTHLAYLRQDQGRVRVWRASVKGEGASPVIEDAYDIEDVQWLDDNTLIYSGRPGFVEAEAEIEREGRRGWVYDERFHPLTGARPRVLEPISIVYQVLDLKTGTRRAATPTEVARLREKPDPLRAMVGRTTFSVSRTDPQNINAPTTLVARRGEGEPVRCDEEACQNITRMWGDETANVLYFLRREGWASNEMALYRMPADALKPVRIWHATGLLQGCERQAKRLICAQESALQPRRLVTLNLTSGQMSPLYDPNPDLSRYRLPKVERLTLRNRNGIEVFSDLVLPPDYQLGTRLPLVIVQYSSRGFLRGGTGDENPILPLATAGFAVLSFHSPRSEASYQRFTSPIAQSKAEYSNWRNRWNILHTLEDLIDDLDRRGVIDPARVGLTGLADGATTVHFGLINSHRFAAAVTSSCCTDSFTASVMNGPRISGALKAYGIETDQADDGPFWAATSFVVNASRLDTPLLIQSADEEYLGALPGFTALQQARKPVELIIYPNEHHVKWQPAHRLAVYNRTIDWFRFWLMDQSDPAPDKAAQYDRWRALRALRQKSPSPTPAP
Regarding B2, the “activity toward astexin-3 in vitro” value in data set [3] is given as “AtxE2 S527A had no activity toward astexin-3”.

The record behind these values is patent US20190040107.
